Target: the molecule itself
Experiment: crystal structure; Ca2+-loaded mS100A7ΔC at 12 to 14 mg/ml in 20 mM Tris pH 8.0, 100 mM NaCl, 1% glycerol, 1 mM TCEP, 2 mM CaCl2; crystals in 0.1 M potassium thiocyanate, 20% PEG MME 2K, 0.01 M strontium chloride, 20 °C; space group P212121, 1.69 Å

B1: mouse S100A7 tailless (mS100A7ΔC), deletion mutant mS100A7(1-100) (domain or fragment, UniProt Q6S5I3 1-100, looked up)
chain: MPDTPVEDSLFQIIHCFHHYAAREGDKETLSLEELKALLLDSVPRFMDTLGRRQPYYITELFRAADKNKDNQICFDEFLYILGKLVKDYHLQFHRQLCAH
notes: mouse S100A7 (S100A15a), UniProt Q6S5I3, residues 1-100: truncated at His100, lacks the last eight residues of the C-terminal tail; Gene synthesised and subcloned in pET11a (NdeI/BamHI); no tag is mentioned; Crystallised Ca2+-loaded; residues R95-H100 are poorly defined in the structure; also called murine S100A7ΔC; S100A15a; source: E. coli BL21 RIL, purified (supernatant heated to 85 °C, DEAE …)
- binding result: binds

Reference: PMC10598741, “Comparative analysis of the physical properties of murine and human S100A7: Insight into why zinc piracy is mediated by human but not murine S100A7” (The Journal of Biological Chemistry, 2023)
